Source: patent publication US20240425614A1 (NARA MEDICAL UNIVERSITY, published 2024)
Residue numbers refer to the chain shown, from its start.

T1: ADAMTS13 in normal human plasma (human, UniProt Q76LX8 75-1427)
T1 sequence (looked up): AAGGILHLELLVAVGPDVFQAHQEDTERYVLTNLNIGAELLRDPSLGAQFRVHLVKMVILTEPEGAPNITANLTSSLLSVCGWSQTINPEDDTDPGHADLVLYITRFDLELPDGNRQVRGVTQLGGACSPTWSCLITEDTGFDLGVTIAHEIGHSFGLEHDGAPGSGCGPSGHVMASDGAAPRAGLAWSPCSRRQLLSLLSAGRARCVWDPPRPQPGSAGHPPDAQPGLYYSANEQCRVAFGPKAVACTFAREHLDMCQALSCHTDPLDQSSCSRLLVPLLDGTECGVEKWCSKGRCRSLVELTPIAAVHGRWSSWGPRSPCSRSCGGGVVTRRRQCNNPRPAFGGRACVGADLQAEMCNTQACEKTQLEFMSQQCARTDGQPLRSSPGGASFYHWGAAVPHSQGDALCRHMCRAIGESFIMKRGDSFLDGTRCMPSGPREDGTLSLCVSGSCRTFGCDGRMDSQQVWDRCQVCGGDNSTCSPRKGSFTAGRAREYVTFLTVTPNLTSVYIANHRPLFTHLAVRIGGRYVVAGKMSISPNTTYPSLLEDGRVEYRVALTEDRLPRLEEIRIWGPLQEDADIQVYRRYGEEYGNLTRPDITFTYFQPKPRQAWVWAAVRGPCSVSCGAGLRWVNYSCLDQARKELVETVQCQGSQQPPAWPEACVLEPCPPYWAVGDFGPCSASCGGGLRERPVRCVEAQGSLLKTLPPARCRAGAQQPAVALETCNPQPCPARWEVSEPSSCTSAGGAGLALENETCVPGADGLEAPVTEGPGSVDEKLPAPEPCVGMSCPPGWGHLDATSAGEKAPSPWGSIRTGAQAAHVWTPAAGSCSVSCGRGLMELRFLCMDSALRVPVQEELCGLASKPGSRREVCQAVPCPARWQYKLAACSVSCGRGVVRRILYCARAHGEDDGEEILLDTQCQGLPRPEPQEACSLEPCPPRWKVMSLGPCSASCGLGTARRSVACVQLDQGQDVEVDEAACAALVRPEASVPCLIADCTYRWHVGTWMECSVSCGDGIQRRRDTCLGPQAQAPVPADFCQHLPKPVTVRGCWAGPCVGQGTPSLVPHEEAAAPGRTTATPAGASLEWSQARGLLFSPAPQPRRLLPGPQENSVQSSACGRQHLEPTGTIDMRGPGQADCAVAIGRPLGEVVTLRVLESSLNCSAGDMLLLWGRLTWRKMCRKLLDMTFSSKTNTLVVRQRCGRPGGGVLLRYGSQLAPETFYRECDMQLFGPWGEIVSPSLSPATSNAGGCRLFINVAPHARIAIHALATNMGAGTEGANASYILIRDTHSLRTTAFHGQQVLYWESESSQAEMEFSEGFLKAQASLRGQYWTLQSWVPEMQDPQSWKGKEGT

B1: 1G2 antibody (antibody, mouse IgG1, kappa, V domains shown)
VH: QVQLRESGPGLVAPSQSLSITCTVSGFSLPRYGIHWVRQPPGKGLEWLGVIWAGGSTDYDSALMSRLSISKDTSKSQVFLKMSSLQTDDTAIYYCARAGGSQPFDYWGQGTTLTVSS
VL: DIKMTQSPSSMYASLGERVTITCKASRDINTYLSWFQQKPGKSPKTLISRANRLVDGVPSRFSGSGSGQDYSLSISSLEYEDMGFYYCLQYDEFPWTFGGGTKLVIKR
B2: 12D10 antibody (antibody, mouse IgG1, kappa, V domains shown)
VH: QVQLKESGPGLVAPSQSLSITCTVSGFSLTRYGVHWVRQPPGKGLEWLGVIWAGGSTNYKSALMSRLNITKDNSKSQVFLKMNGLQTDDTAIYFCARAGGSSSFDYWGQGTTLTVSS
VL: B1 VL with Y12N, R27Q, S34G, S49Y, D70G, S74T, F85I, V105E
B3: 9A7 antibody (antibody, mouse IgG2b, kappa, V domains shown)
VH: QVQLKESGPGLVAPSQSLSITCTVSGFSLTGYGIHWVRQPPGKGLEWLGVIWADGTTNSNSALMSRLSISKDNSKSQVFLKMTSLQTDDTAMYHCARAGGSQPFDYWGQGTTLTVSS
VL: B1 VL with R27Q, T31S, S49F, S74T, G84E, F85I, V105E
B4: ADAMTS13 in normal human plasma (protein)
chain: T1 sequence (looked up)

What was measured:
[1] = target: T1, ADAMTS13 in normal human plasma; assay: cell-based or functional assay
[2] = target: von Willebrand factor (VWF) multimer in human plasma, P04275

| Binder | ID50 concentration on the VWF cleaving activity of ADAMTS13 (ADAMTS13 activity remaining in human plasma, ELISA) [1] [µg/mL] | VWF multimer analysis (SDS-agarose gel, Western blot) of human plasma under high shear stress [2] |
| --- | --- | --- |
| B1 | ~7.28 | – |
| B2 | ~25.4 | – |
| B3 | ~19.5 | – |
| B4 | – | more deficiency in high-molecular-weight VWF multimer and stronger cleavage of VWF were shown with increase in shear stress of 108 dyne/cm^2, 216 dyne/cm^2, and 324 dyne/cm^2 |
